Source: patent US20070014736A1, “Methods of delivering corticotroph-derived glycoprotein hormone” (priority 2005, published 2007)

Key:
[1] = system: differentiated 3T3 L1 adipocytes; assay: CRE-luciferase reporter assay in differentiated 3T3 L1 adipocytes; type: cell-based, murine
Excerpt: (§1) Differentiated murine 3T3 L1 adipocytes and primary human adipocytes were used to study signal transduction of CGH. 3T3 L1 fibroblasts were differentiated into adipocytes and the cells were transduced with recombinant adenovirus containing a reporter construct, a firefly luciferase gene under the control of cAMP response element (CRE) enhancer sequences. This assay system detects cAMP-mediated gene induction downstream of activation of Gs-coupled G-protein coupled receptors (GPCR's). […] In a separate experiment, undifferentiated 3T3 L1 fibroblasts were transduced with the recombinant adenovirus. […] In another experiment, human primary adipocytes were also transduced with the recombinant adenovirus containing a reporter construct. Treatment of the human adipocytes with isoproterenol produced a 17-fold induction of luciferase expression.
(§2) Cells were cultured at 37° C. in an 8% CO2 humidified incubator. Cells were seeded to collagen-coated 96-well plates (Becton Dickinson, cat. #356407) at a density of 5,000 cells per well. […] Luciferase activity was measured on a microplate luminometer (PerkinElmer Life Sciences, Inc., model LB 96V2R) following automated injection of 40 μl of luciferase assay substrate into each well. […]

[2] = system: obese male ob/ob mice; assay: Chronic 28-day treatment of ob/ob mice; type: in vivo
Description: Summary: CGH was administered daily for 28 days to obese male ob/ob mice. Mice were also treated with vehicle saline and thyroxine. Data was obtained for food intake, blood glucose, serum insulin, serum lipids, and serum thyroid hormone levels. At sacrifice, animals were examined for changes in liver pathology, and gross histology. […] Evaluation of liver histology sections was performed to examine the effect of CGH-mediated lipolysis on liver steatosis.
11-week old male ob/ob mice were individually caged and given a standard lab chow (4% fat) with free access to food and water. Animals were assigned to a treatment group (n=7−8, average weight 54.3±0.3 g/group), kept on a 12 hour dark cycle (6 PM to 6 AM), and injected each day between 7 and 9 AM. Chow consumed by each animal was weighed twice weekly. All animals received treatments IP in an injection volume of 0.1 ml. CGH was administered at 250 μg/kg, dissolved in sterile saline. Thyroxine (T4) was administered at 1.5 μg/mouse for 4 days, reduced to 1 μg/mouse for 10 days, and returned to 1.5 μg/mouse for the next 14 days. The vehicle controls received sterile saline. TSH was obtained from Genzyme Pharmaceuticals (Thyrogen®, Catalog number 36778; Genzyme Corporation, Cambridge, Mass.), and T4 obtained from Calbiochem, Inc. (EMD Biosciences, catalog number 61205, San Diego, Calif.) All blood draws were performed by retro-orbital puncture under isoflurane anesthesia.
After 25 days of treatment as described above, blood was sampled from all treated animals, serum separated, and analyzed for total T4 by a commercially available kit (Biocheck, Burlingame, Calif.). After 25 days of treatment, the vehicle T4 levels were 5.14±0.08 μg/dl. The CGH-treated group had T4 levels of 7.25±1.2 μg/dl, and the thyroxine-treated group had T4 levels of 9.04±0.47 μg/dl.
Subject animals were fasted for 4 hours at the beginning of the light cycle, and serum was obtained at treatment day 25 under isoflurane anesthesia. Serum Glucose levels were determined with the Cholestech LDX blood analyzer (Cholestech Corporation, Hayward Calif.), and serum insulin levels by ELISA. Serum glucose levels for vehicle and thyroxine treated groups were 306±22 and 295±23 mg/dl, respectively. […] Serum insulin levels for the vehicle and thyroxine treated groups were 33.5±1.8 and 25.9±1.7 ng/ml, respectively.
Subject animals were fasted for 4 hours at the beginning of the light cycle, and serum was obtained at treatment day 25 under isoflurane anesthesia. Triglyceride and total cholesterol levels were determined with the Cholestech LDX blood analyzer. Serum triglyceride levels for the vehicle controls were 143.7±23 mg/dl. […] Total cholesterol levels in the vehicle-treated and thyroxine-treated groups were 198±13 and 194±15 mg/dl, respectively.
Liver sections were dissected from all treatment groups described above and mounted in paraffin following fixation with NBS-formalin. Sections were mounted and stained with hematotoxylin and eosin (H&E) for visualization of hepatic structural changes. The extent of liver steatosis was evaluated on a four-point scale, from 0 to 3, with zero displaying no signs of liver steatosis, and a […], represented pronounced macrovesicular and microvesicular steatosis. […] Average scores given to the groups were vehicle (4), thyroxine (3), and CGH (1.5). […] The CGH treated sections appear to have regained hallmarks of normal hepatocyte architecture in only 28 days of treatment, with areas containing hepatocytes without lipid-laden inclusions in the cytoplasm of the cell.

[3] = system: undifferentiated 3T3 L1 fibroblasts; assay: CRE-luciferase reporter assay in undifferentiated 3T3 L1 fibroblasts; type: cell-based, murine
Excerpt: as §1, §2

[4] = system: human primary adipocytes; assay: CRE-luciferase reporter assay in human primary adipocytes; type: cell-based
Excerpt: as §1, §2

B1: CGH: heterodimeric protein hormone comprised of alpha subunit GPHA2 and beta subunit GPHB5, recombinantly produced in CHO cells (protein)
chain 1: QEAVIPGCHLHPFNVTVRSDRQGTCQGSHVAQACVGHCESSAFPSRYSVLVASGYRHNITSVSQCCTISGLKKVKVQLQCVGSRREELEIFTARACQCDMCRLSRY
chain 2: ASSGNLRTFVGCAVREFTFLAKKPGCRGLRITTDACWGRCETWEKPILEPPYIEAHHRVCTYNETKQVTVKLPNCAPGVDPFYTYPVAIRCDCGACSTATTECETI
induction of luciferase expression [1]: 27 fold
liver steatosis average score ([2]; H&E liver sections, 28 days, n=4): 1.5
serum total T4 levels ([2]; after 25 days of treatment): 7.25 ± 1.2 µg/dL
Serum glucose levels ([2]; day 25, fasted 4 hours): 251 ± 10 mg/dL
Serum insulin levels ([2]; day 25, fasted 4 hours): 14.2 ± 3.6 ng/mL
Serum triglyceride levels ([2]; day 25, fasted 4 hours): 100 ± 14.7 mg/dL
Total cholesterol levels ([2]; day 25, fasted 4 hours): 104 ± 8.8 mg/dL
Food intake ([2]; ob/ob mice, CGH 250 μg/kg IP daily, T4 1-1.5 μg/mouse): 6.3±0.09 grams/day of chow
reporter gene induction [3]: did not result in an increase in reporter gene induction
induction of luciferase expression / reporter gene [4]: 14 fold
